In this test the target is T1, GST-Capza2 (mouse, UniProt P47754 1-286).
T1 construct: Capza2, α2 subunit of F-actin capping protein, from E17 mouse cDNA; primers run from the start codon (atg gcg gat ctg) to the stop codon; pGEX-4T-2 vector; The methods of the native gel say 'Capza2', the legend 'GST-Capza2'; also called α2-subunit; the other CP subunit; source: E. coli BL21-DE3 or ArcticExpress (DE3)RP, purified (glutathione sepharose)
The test can be described thus: native gel or EMSA; 1 µM GST-Capzb2 or GST-Capzb2Δ106–140 with 1 µM GST-Capza2, 10 min at 4°C, 4%–20% Tris-glycine native gel, bands excised and identified by Western blot. The note with it: both partners purified. In general terms: In EMSA bound probe runs differently from free probe, usually more slowly.

B1: GST-Capzb2Δ106–140 (natural protein, mouse, UniProt P47757-2 1-272, looked up)
chain: MSDQQLDCALDLMRRLPPQQIEKNLSDLIDLVPSLCEDLLSSVDQPLKIARDKVVGKDYLLCDYNRDGDSYRSPWSNKYDPPLEDGAMPSARLRKLEVEANNAFDSKKIKGCWDSIHVVEVQEKSSGRTAHYKLTSTVMLWLQTNKSGSGTMNLGGSLTRQMEKDETVSDCSPHIANIGRLVEDMENKIRSTLNEIYFGKTKDIVNGLRSVQTFADKSKQEALKNDLVEALKRKQQC
notes: pGEX-4T-2 vector; also called deletion mutant; source: E. coli BL21-DE3 or ArcticExpress (DE3)RP, purified (glutathione sepharose)
As to B1, the binding result is “binds”.
